Assay results from US20250250357A1 (NANJING ZAIMING PHARMACEUTICAL, published 2025).
Numbering of substitutions follows the chain as printed.

B1: S009-F7.6.17 (antibody, human IgG1, kappa, V domains shown)
VH: QVQLQQSGAELARPGASVKMSCKASGYTFTTYTMHWVKQRPGQGLEWIGYISPTGDFTKYNQKFKDKATLTTDKSSNTAFMQLSSLTSEDSAVYYCARWNGTVWFAYWGQGTLVTVSA
VL: DIVMTQSQKFMSTSVGDRVTVTCKASQALGTNVAWYQQKPGQSPKVLIYSASYRYSGVPYRFAGGGSGTDFTLTITNVQSEDLAEYFCQQYNNYPLTFGAGTKLELKR
notes: Human-murine chimeric antibody, human IgG1 heavy and kappa light constant regions
B2: S009-F7.23.19 (antibody, human IgG1, kappa, V domains shown)
VH: EVKLVESGGGLVQPGGSLSLSCAASGFTFTDYYMSWVRQPPGKALEWLGFIRSKANAYTTEYSASVKGRFTISRDNSQSILYLQMNDLRAEDSATYYCARYYYYGSGYVWYFDVWGTGTTVTVSS
VL: B1 VL with T20S, A28S, L29V, S43F, V46A, Y60D, A63T, G65S, T76I, N93S
notes: as for B1
B3: S009-F7.18.10 (antibody, human IgG1, kappa, V domains shown)
VH: QVQLQQSGAELVRPGTSVKVSCKASGYAFTNYLIEWVKQRPGQGLEWIGVINPGSGGTKYNEKFKGKATLTADKSSSTAYMQLSSLTSEDSAVYFCASDYDYDPFAYWGQGTLVTVSA
VL: DIVMTQSHKFMSTSVGDRVSITCKASQDVSTAVAWYQRKPGQSPKLLIYWASTRHTGVPDRFTGSGSGTDYTLTISYMQAEDLALYYCQQHYSTPYTFGGGTKLEIKR
notes: as for B1
B4: S009-F7.26.15 (antibody, human IgG1, kappa, V domains shown)
VH: DVQLQESGPGLVKPSQTVFLTCTVTGISITTGNYRWSWIRQFPGNKLEWIGYIYYTGFITYNPSLTSRTTITRDTPKNQFFLEMKSLTAEDTATYYCARDDYDYDVFAYWGQGTLVTVSA
VL: DIQMTQSPASLSASVGETVTITCRASGNIHNYLAWYHQKQGKSPQFLVYKAKTLADGVPSRFSGSGSGTQYSLKINRLQPEDFGSYYCQHFLSIPLTFGAGTKLELKR
notes: as for B1
B5: S009-F7.11.11 (antibody, human IgG1, kappa, V domains shown)
VH: EVQLQQSGPELVKPGASVKIPCKASGYTITDYNMDWVKQSRGKSLEWIGDVFPYNGDSIYNQKFEGRATLTVDKYSSTAYMELRGLTSEDTAVYFCARRKTGTGYFDVWGTGTTVTVSS
VL: QLVLTQSPAIMSASPGEKVTLTCSASSSVSSTYLSWYLQKPGSSPKLWIYSTSNLASGVPARFSGSGSGTSYSLTISSMEAEDAASYFCHQWSSYPYTFGGGTKLEIKR
notes: as for B1
B6: S009-F7.12.13 (antibody, human IgG1, kappa, V domains shown)
VH: EVQLQQSGPELVKPGASVKIPCKASGYTFTDYNMDWVKQSHGKGLEWIGDINPNTDDTIYNQKFNGKATLTVDKSSSTAYMELRSLTSEDTAVYYCSRRLIGTGYFDVWGTGTTVTVSS
VL: B5 VL with L2I, S30I, S35C, L38R, K46E, S94N, E106G, I107M
notes: as for B1
B7: S009-F7.25.19 (antibody, human IgG1, kappa, V domains shown)
VH: QVQLQQPGTELVKPGASVKLSCKASGYTFTSYWMHWVKQRPGQGLEWIGNIIPSNGGTKYNEKFKSKATLTVDKSSSTAYMQLSSLTSEDSAVYYCSPHYYGGSPGFAYWGQGTLITVSA
VL: DIVMTQSQKFMSTSVGDRVSVICKASQNVGTNVAWYQQKPGQSPKALIYSASYRYSGVPDRFTGSGSGTDFTLTISNVQSEDLAEYFCQQYNSYPLTFGGGTKLEIKR
notes: as for B1
B8: S009-F7.30.5 (antibody, human IgG1, kappa, V domains shown)
VH: QVQLQQPKTELVKPGASVKLSCKASGYIFTTYWMHWVKQRPGQGLEWIGNVNPSNGGTMYNEKFERRATLTVDKSSSTADMQLSSLTSEDSAVYYCVPHYIGSRPGFAYWGQGTLVTVSG
VL: B7 VL with I22T, Q38H, I48L, S76T
notes: as for B1
B9: S009-F7.33.24 (antibody, human IgG1, kappa, V domains shown)
VH: B8 VH with K8G, I28T, T31S, T58S, M59N, E65K, R66N, R67K, S84N, V97A
VL: B7 VL with I22T, V33I, S76T, L104V
notes: as for B1
B10: S009-F7.41.18 (antibody, human IgG1, kappa, V domains shown)
VH: QVQLQQPGTELVKPGASVKLSCKASDYTFTSYWMHWVKQRPGQGLEWIGSINPSNGDTYYNEKFKNKATLTVDKSSSTAYMQLSSLTSDDSAVYYCARGWYFDVWGTGTTVTVSS
VL: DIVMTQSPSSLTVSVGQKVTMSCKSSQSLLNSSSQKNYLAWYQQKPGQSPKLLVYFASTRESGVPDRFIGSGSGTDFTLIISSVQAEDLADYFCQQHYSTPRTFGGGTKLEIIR
notes: as for B1

target: T1, human MSLN-R2-his protein (human, UniProt Q13421 391-486); assay: ELISA on coated antigen, antibody 0.02 nM
T1 construct: it is put last here; also called human MSLN-R2 protein; hMSLN-R2-his; not shown: His tag
T1 sequence (Q13421 other isoform, or with tags, fused parts or gaps): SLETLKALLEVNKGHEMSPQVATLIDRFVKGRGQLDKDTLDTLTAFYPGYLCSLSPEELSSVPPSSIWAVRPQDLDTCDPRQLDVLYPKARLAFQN

Binder	OD450 [OD]
B1	0.05
B2	0.05
B3	0.05
B4	0.05
B5	0.05
B6	0.05
B7	0.05
B8	0.05
B9	0.06
B10	0.07

target: T2, human MSLN-R3-his protein (human, UniProt Q13421 487-598); assay: ELISA on coated antigen, antibody 0.002 nM
T2 construct: it is put last here; also called human MSLN-R3 protein; hMSLN-R3-his; not shown: His tag
T2 sequence (Q13421 495-606): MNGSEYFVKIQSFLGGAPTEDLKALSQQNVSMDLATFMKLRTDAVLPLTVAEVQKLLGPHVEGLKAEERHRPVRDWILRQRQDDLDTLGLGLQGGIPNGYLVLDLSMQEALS

Binder	OD450 [OD]
B1	0.56
B2	0.25
B3	0.05
B4	0.6
B5	0.09
B6	0.15
B7	0.9
B8	0.74
B9	1.04
B10	0.12

target: T1, human MSLN-R2-his protein; assay: ELISA on coated antigen, antibody 0.0002 nM
Method: (§1) The plate was sealed with a plastic film and incubated at 4° C. overnight. The next day, the plate was washed twice with PBST, and a blocking buffer [PBS+2% (w/w) BSA] was added for blocking at room temperature for 2 h. The blocking buffer was discarded, and a chimeric antibody or negative control antibody serially diluted from 100 nM was added at 50 μL/well. After incubation at 37° C. for 2 h, the plate was washed 3 times with PBST. […] After incubation at 37° C. for 2 h, the plate was washed 5 times with PBST. A TMB substrate was added at 50 μL/well for incubation at room temperature for 5-10 min, and then a stop solution (1.0 N HCl) was added at 50 μL/well.

Binder	OD450 [OD]
B1	0.05
B2	0.14
B3	0.05
B4	0.05
B5	0.05
B6	0.05
B7	0.05
B8	0.05
B9	0.06
B10	0.07

target: T1, human MSLN-R2-his protein; assay: ELISA on coated antigen, antibody 0.2 nM
Method: as §1

Binder	OD450 [OD]
B1	0.05
B2	0.05
B3	0.06
B4	0.05
B5	0.05
B6	0.05
B7	0.05
B8	0.06
B9	0.06
B10	0.07

target: T1, human MSLN-R2-his protein; assay: ELISA on coated antigen, antibody 0.002 nM
Method: as §1

Binder	OD450 [OD]
B1	0.05
B2	0.05
B3	0.05
B4	0.05
B5	0.05
B6	0.05
B7	0.05
B8	0.05
B9	0.06
B10	0.07

target: T2, human MSLN-R3-his protein; assay: ELISA on coated antigen, antibody 2 nM

Binder	OD450 [OD]
B1	2.86
B2	2.52
B3	0.07
B4	2.79
B5	2.41
B6	2.48
B7	2.76
B8	2.75
B9	2.85
B10	2.43

target: T2, human MSLN-R3-his protein; assay: ELISA on coated antigen, antibody 0.0002 nM

Binder	OD450 [OD]
B1	0.13
B2	0.08
B3	0.05
B4	0.16
B5	0.06
B6	0.06
B7	0.3
B8	0.25
B9	0.23
B10	0.07

target: T1, human MSLN-R2-his protein; assay: ELISA on coated antigen, antibody 200 nM
Method: as §1

Binder	OD450 [OD]
B1	0.13
B2	0.09
B3	0.14
B4	0.18
B5	0.07
B6	0.08
B7	0.31
B8	0.5
B9	0.08
B10	0.15

target: T2, human MSLN-R3-his protein; assay: ELISA on coated antigen, no antibody (blank, column 'none')
Method: as §1

Binder	OD450 [OD]
B1	0.08
B2	0.09
B3	0.07
B4	0.07
B5	0.06
B6	0.06
B7	0.07
B8	0.09
B9	0.08
B10	0.06

target: T2, human MSLN-R3-his protein; assay: ELISA on coated antigen, antibody 20 nM

Binder	OD450 [OD]
B1	2.81
B2	2.63
B3	0.14
B4	2.73
B5	2.58
B6	2.67
B7	2.71
B8	2.84
B9	2.67
B10	2.46

target: T1, human MSLN-R2-his protein; assay: ELISA on coated antigen, antibody 2 nM
Method: as §1

Binder	OD450 [OD]
B1	0.05
B2	0.05
B3	0.09
B4	0.05
B5	0.05
B6	0.05
B7	0.06
B8	0.06
B9	0.06
B10	0.11

target: T1, human MSLN-R2-his protein; assay: ELISA on coated antigen, no antibody (blank, column 'none')
Method: as §1

Binder	OD450 [OD]
B1	0.06
B2	0.06
B3	0.06
B4	0.06
B5	0.06
B6	0.06
B7	0.06
B8	0.06
B9	0.07
B10	0.08

target: T2, human MSLN-R3-his protein; assay: ELISA on coated antigen, antibody 200 nM
Method: as §1

Binder	OD450 [OD]
B1	3.1
B2	2.77
B3	0.29
B4	2.74
B5	3.12
B6	2.96
B7	2.83
B8	2.71
B9	2.84
B10	3

target: T2, human MSLN-R3-his protein; assay: ELISA on coated antigen, antibody 0.02 nM
Method: as §1

Binder	OD450 [OD]
B1	1.55
B2	0.88
B3	0.05
B4	1.63
B5	0.32
B6	0.36
B7	1.81
B8	1.7
B9	2.13
B10	0.69

target: T1, human MSLN-R2-his protein; assay: ELISA on coated antigen, antibody 20 nM
Method: as §1

Binder	OD450 [OD]
B1	0.07
B2	0.05
B3	0.09
B4	0.08
B5	0.06
B6	0.06
B7	0.09
B8	0.15
B9	0.04
B10	0.12

target: T2, human MSLN-R3-his protein; assay: ELISA on coated antigen, antibody 0.2 nM

Binder	OD450 [OD]
B1	2.64
B2	1.9
B3	0.06
B4	2.45
B5	1.37
B6	1.67
B7	2.6
B8	2.66
B9	2.7
B10	1.92
